Target: FtsZ-F268C labeled with fluorescein 5-maleimide (donor) or tetramethylrhodamine 5-maleimide (acceptor) (E. coli) (UniProt P0A9A6)

FRET assay of subunit exchange of FtsZ protofilaments at steady state with ZipA, pH 6.5: reaction time τ (13.1 s for FtsZ alone): 25.2 s
Substance: N-terminally truncated ZipA (26-328) from E. coli (from UniProt P77173 26-328) (domain or fragment)

Source: article PMC5473857
